Test [1] concerns the target T1, human 5T4 (human, UniProt Q13641 32-355, limits assumed).
T1 construct: also called hu5T4
T1 sequence (looked up): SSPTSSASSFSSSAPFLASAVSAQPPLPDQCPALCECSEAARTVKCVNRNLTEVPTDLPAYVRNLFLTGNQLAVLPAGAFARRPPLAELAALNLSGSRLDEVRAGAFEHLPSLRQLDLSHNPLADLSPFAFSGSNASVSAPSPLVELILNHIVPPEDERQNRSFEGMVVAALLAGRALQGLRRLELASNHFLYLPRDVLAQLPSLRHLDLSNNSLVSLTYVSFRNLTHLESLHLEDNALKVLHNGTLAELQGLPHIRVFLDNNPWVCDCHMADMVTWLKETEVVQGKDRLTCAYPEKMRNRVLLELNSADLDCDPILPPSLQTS
Nature of the test: competitive ELISA on human 5T4. (In general: An ELISA detects its analyte on a solid surface through an enzyme-linked reagent.)

Test [2] deals with T2, cynomolgus CD40-His protein (cynomolgus, UniProt G7PG38 21-193).
T2 construct: His-tagged recombinant protein; also called cyno CD40 antigen
Nature of the test: ELISA, plate-coated cynomolgus CD40-His. Here is the method: (§1) To evaluate the binding activity of clones 42p155, 2p834, 2p931, 42p655, 2p1294, 2p957, 42p495, 3p78, 2p415, 2p442, 2p551, 2p80 and 2p1130, the chimeric monospecific antibody (mAb) from these clones were subjected to ELISA test, along with selicrelumab, the clinical benchmark anti-CD40 agonist antibodies.
The binding affinity of these clones to cynomolgus CD40 was also tested. Microtiter plates were coated with cynomolgus CD40-His protein at 1.0 μg/ml in PBS, 100 µl/well at 4° C. overnight, then blocked with 150 µl/well of 1% BSA. Ten-fold dilutions of 42p155, 2p834, 2p931, 42p655, 2p1294, 2p957, 42p495, 3p78, 2p415, 2p442, 2p551, 2p80 and 2p1130 antibodies starting from 100 nM were added to each well and incubated for 1 hour at RT. The plates were washed with PBS/Tween and then incubated with Anti-Human IgG (H&L) (GOAT) Antibody Peroxidase Conjugated for 30 mins at RT. After washing, the plates were developed with TMB substrate and analyzed by spectrophotometer at OD 450 nm. As shown in FIG. 1B and Table 2, all these clones bound to cynomolgus CD40 at high activity, showing good cross-reactivity between human and cynomolgus CD40 proteins.

For test [3], the target named is T3, human OX40 protein (human, UniProt P43489 29-216, limits assumed).
T3 sequence (looked up): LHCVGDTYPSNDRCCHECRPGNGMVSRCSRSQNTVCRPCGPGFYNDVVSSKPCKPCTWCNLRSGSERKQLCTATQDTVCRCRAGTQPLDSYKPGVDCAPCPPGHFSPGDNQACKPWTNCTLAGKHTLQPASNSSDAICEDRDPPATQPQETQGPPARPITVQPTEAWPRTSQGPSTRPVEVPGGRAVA
Nature of the test: ELISA, plate-coated protein. Here is the method: (§2) To evaluate the cross reactivity of chimeric anti-CD40 antibodies to other family members of TNF receptors, the ELISA binding towards human 4-1BB and human OX40 were performed.
(§3) Briefly, microtiter plates were coated with human 4-1BB protein or human OX40 protein at 1 μg/ml in PBS, 100 μl/well at 4° C. overnight, then blocked with 150 μl/well of 1% BSA. Ten-fold dilutions of 42p155, 2p834, 2p931, 42p655, 2p1294, 2p957, 42p495, 3p78, 2p415, 2p442, 2p551, 2p80 and 2p1130 antibodies starting from 100 nM were added to each well and incubated for 1 hour at RT. The plates were washed with PBS/Tween and then incubated with Anti-Human IgG (H&L) (GOAT) Antibody Peroxidase Conjugated for 30 mins at RT. After washing, the plates were developed with TMB substrate and analyzed by spectrophotometer at OD 450 nm.

Test [4] addresses T4, human 4-1BB protein (human, UniProt Q07011 24-186).
T4 construct: also called 4-IBB
Nature of the test: ELISA, plate-coated protein. Here is the method: as §2, §3

The target of test [5] is T5, human CD40 on the cell surface (human, UniProt P25942 21-277).
T5 construct: whole, on cells; also called cell surface CD40; Jurkat-CD40
T5 sequence (P25942 21-277): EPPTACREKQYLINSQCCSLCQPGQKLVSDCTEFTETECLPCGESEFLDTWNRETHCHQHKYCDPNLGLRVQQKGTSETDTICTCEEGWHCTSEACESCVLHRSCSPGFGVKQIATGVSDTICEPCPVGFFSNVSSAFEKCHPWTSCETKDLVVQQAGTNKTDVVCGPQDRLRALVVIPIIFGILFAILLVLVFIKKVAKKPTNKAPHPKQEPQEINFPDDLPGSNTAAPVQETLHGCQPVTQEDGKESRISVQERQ
Briefly: FACS, Jurkat cells overexpressing human CD40, PE anti-human IgG, MFI. As to the method:
To evaluate their binding affinity to cell surface CD40, chimeric anti-CD40 monospecific antibodies were tested in Jurkat cell lines that overexpressed CD40 by FACS. A total number of 1×10⁵ Jurkat-CD40 cells in each well were incubated with 10-fold serially diluted antibodies starting from 100 nM for 30 minutes at 4° C. in FACS buffer. After wash by FACS buffer, PE conjugated-anti-human IgG antibody was added to each well and incubated at 4° C. for 30 minutes. After wash, MFI of PE was evaluated by MACSQuant Analyzer 16.

Test [6] addresses T5, human CD40 on the cell surface. Nature of the test: cell-based or functional assay.
For test [7], the target named is T6, human CD40-His protein (human, UniProt P25942 21-193).
T6 construct: His-tagged recombinant protein; also called human CD40-his tag; recombinant CD40 protein
T6 sequence (P25942 21-193 limits assumed): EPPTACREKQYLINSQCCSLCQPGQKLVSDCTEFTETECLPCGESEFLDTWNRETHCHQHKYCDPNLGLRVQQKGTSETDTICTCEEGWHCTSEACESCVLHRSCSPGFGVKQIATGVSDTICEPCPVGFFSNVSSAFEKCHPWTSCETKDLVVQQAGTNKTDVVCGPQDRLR
Nature of the test: ELISA, plate-coated human CD40-His. Here is the method: as §1
as §3, with “human CD40-His” for “human 4-1BB protein or human OX40”, “at 1.0” for “at 1”, “150 µl/well” for “150 μl/well”

Test [8] has as its target T5, human CD40 on the cell surface. Nature of the test: FACS, Jurkat cells overexpressing human CD40, PE anti-human IgG, MFI. Here is the method: To evaluate the binding affinity of humanized 2p442 monoclonal antibodies to cell surface CD40, 2p442z8, 2p442z9, 2p442z10 and parental 2p442 were tested in Jurkat cell lines that overexpressed CD40 by FACS. A total number of 1×10⁵ Jurkat-CD40 cells in each well were incubated with 3-fold serially diluted antibodies starting from 100 nM for 30 minutes at 4° C. in FACS buffer. After wash by FACS buffer, PE conjugated-anti-human IgG antibody was added to each well and incubated at 4° C. for 30 minutes. After wash, MFI of PE was evaluated by MACSQuant Analyzer 16.
The source holds these as a separate data set. For orientation: A flow cytometer gives signals particle by particle.

Test [9] has as its target T6, human CD40-His protein. Briefly: BLI Octet RED96e, antibody captured on AHC, CD40-His as analyte. Here is the method:
The binding of the humanized 42p155 and 2p442 antibodies to recombinant human CD40 protein (human CD40-his tag) was tested by Biacore and Octet, respectively, using a capture method.
For humanized 2p442 monoclonal antibodies, 2p442z8, 2p442z9 and 2p442z10 were captured using AHC biosensor. A serial dilution of human CD40-his tag protein was incubated with captured antibody for 5 mins. The antigen was allowed to dissociate for 10 min. All the experiments were carried out on an Octet RED96e. Data analysis was carried out using Octet Analysis Studio 12.2 software.

Read-outs that look alike come from different tables or passages of the source.

B1: 286B4 anti-5T4 mouse monoclonal antibody (antibody, V domains shown)
VH: DVQLHESGPGLVKPSQSLSLTCSVTGYSITNNYYWNWIRQFPGNNLEWMGYITYDGSNNYNPSLKNRISVTRDTSKNQFFLKLSSVTTEDTATYYCTRGGGQLRFDYWGQGTTLTVSS
VL: SIVMTQTPKFLIVSAGDRVTITCKASQSVSNEVTWYQQKPGQSPKMLIYYASNRYTGVPDRFTGSGYGTDFTFTINTVQAEDLAIYFCQQDYSSPWTFGGGTKLEIK
notes: Mouse monoclonal antibody from hybridoma
Take B1: in [1], the binding result is “binds”.

B2: 393E9 anti-5T4 mouse monoclonal antibody (antibody, V domains shown)
VH: EVKLVESGGGLVQPGGSLSLSCAASGFTFTDYYMSWVRQPPGKALEWLGFIRNKGNGYTTENSASVKGRFTISRDNSQSILYLQMNALRAEDSATYYCARYRGNPHYAMDYWGQGTSVTVSS
VL: DIVLTQFPASLAVSLGQRATISCRASESVEFYGTSFLQWYQQKPGQPPKLLIYGASNVESGVPARFSGSGSGTDFSLSIHPVEEDDIAMYFCQQSRKVPSTFGGGTKLEIK
notes: as for B1
Turning to B2, the binding result in test [1] is reported as “binds”.

B3: 2p931 chimeric monospecific antibody (antibody, V domains shown)
VH: AVQLVESGGGLVQPGGSLRLSCAASGFSFRNYMMNWVRQAPGKGLECLSSITSAGDITSYTESVKGRFTISRDNAKNTLYLQMNSLKPEDTAVYYCAQGGCGNYYRESWGQGTQVTVSS
notes: Chimeric monospecific antibody
Turning to B3, the EC50 in test [2] came to 260 pM; in [7] it was 990 pM. In addition, the binding result in test [3] and in [4] was “no binding (tested: 100 nM (highest concentration))” throughout. Besides, the concentration giving a half-maximal response (EC50 (read off the curve)) in test [5] was about 200 pM. In [6], the “CD40 NF-κB luciferase reporter (Jurkat), RLU” value (“CD40 NF-κB luciferase reporter” for short) was over 10 nM.

B4: 14G12 anti-5T4 mouse monoclonal antibody (antibody, V domains shown)
VH: EVQLQQSGPELVKPGASVKISCKASGYAFSSSWMNWVKQRPGKGLEWIGRIYREDGHTNYNGKFKGKATLTADKSSTTAYMQLTSLTSEDSAVYFCANGGAMDYWGQGTSVTVSS
VL: DIQMTQSTSSLSASLGDRVTISCRASQDISNYLNWYQQKPDGTVKLLIYYTSRLHSGVPSRFSGSGSGTDYSLTISNLEQEDIATYFCQQDNTLPWTFGGGTKLEIK
notes: as for B1
For B4, the binding result in test [1] is listed as “binds”.

B5: 2p834 chimeric monospecific antibody (antibody, V domains shown)
VH: QSQLVESGGGLVQPGGSLRLSCAASGFAFRRYTMSWVRQAPGKGLEWVSTITHNGSITTYAESAQGRFTISRDNAKNTLYLQMNSLKPEDTAVYYCAQGGGSNYYRESWGQGTQVTVSS
notes: as for B3
In the case of B5, the EC50 in test [2] came out at 200 pM; in test [7] it was 760 pM. Moreover, the binding result in [3] and in test [4] was “no binding (tested: 100 nM (highest concentration))” in each case. The concentration for a half-maximal effect (EC50 (read off the curve)) in test [5] was about 200 pM. The “CD40 NF-κB luciferase reporter” value in test [6] is over 10 nM.

B6: 3p78 chimeric monospecific antibody (antibody, V domains shown)
VH: PVQLVESGGGLVQPGGSLRLSCAASGFTFRNYAMSWVRQAPGKGLEWVSTITHNGAITTYAESAQGRFTISRDNAKNTLYLQMNSLKPEDTAVYYCAQGGGSNYYRESWGQGTQVTVSS
notes: as for B3
B6: the EC50 in test [2] worked out at 2840 pM; in test [7], 2950 pM. Besides, the binding result in [3] and in test [4] was “no binding (tested: 100 nM (highest concentration))” throughout. Further, the concentration for a half-maximal effect (EC50 (read off the curve)) in test [5] is about 2000 pM. In addition, in [6], the “CD40 NF-κB luciferase reporter” value is over 10 nM.

B7: 159D5 anti-5T4 mouse monoclonal antibody (antibody, V domains shown)
VH: DVQLVESGGGLVQPGGSRKLSCTASGFTFSNFGMHWVRQAPETGLEWVAYISSGSSTFYYADSVKGRFTISRDNPKNTLFLQMTSLRSEDTAMYFCARSPAYYRYGLDYWGQGTTLTVSS
VL: DIVLTQSPASLAVSLGQRATISCRASQSVSSSTFSYMHWYQQKPGQPPKLLIKSSSNLESGVPARFSGSGSGTDFTLNIHPVEEEDTATYYCQHSWEIPYTFGGGTKLEIK
notes: as for B1
For the molecule B7, the binding result in test [1] is “binds”.

B8: 2p442 chimeric monospecific antibody (antibody, V domains shown)
VH: QVQLVESGGGLVQPGGSLRLSCVASGFTLDYFAIGWFRQAPGKEREGVSCISGGGSTRYADSVKGRFTISRDNAKNTVYLQMNSLTPEDTAVYYCAAARLLSRNCVPRDSGSWGQGTQVTVSS
notes: Chimeric monospecific antibody; also called parental 2p442
On to B8, for which, in test [8], the 50% effective concentration (EC50 (read off the curve)) is about 200 pM. This molecule showed a concentration for a half-maximal effect (EC50) in [2] of 300 pM. Moreover, the binding result in test [3] was “no binding (tested: 100 nM (highest concentration))”. Moreover, the binding result in [4] is on record as “no binding (tested: 100 nM (highest concentration))”. Besides, in [9], binding was characterised by a dissociation constant (Kd) of 50400 pM, the koff worked out at 0.0269 s⁻¹ and the kon turned out to be 534000 M⁻¹ s⁻¹. For the same molecule, the “CD40 NF-κB luciferase reporter” value in test [6] is over 10 nM. The molecule also gave a concentration for a half-maximal effect (EC50) in [7] of 1950 pM.

As usually defined, the EC50 is the concentration giving half of the maximal effect. A high value points to a need for much substance. The term EC50 (read off the curve) denotes the concentration giving half of the maximal effect. Low values mean a more potent agent, high ones a less potent agent. By Kd is commonly meant the equilibrium constant for the complex coming apart. A low value points to higher affinity. What is called koff is the rate constant with which the complex falls apart. High values mean a short-lived complex, low ones a long-lived complex. Usually kon stands for the second-order rate constant of association.
